# No end group written: not given here.
# Columns and labels:
# [1] = target: T1, nuclear Xu-5-P activated PPase (Rattus norvegicus, UniProt P63331); assay: Protein phosphatase assay, nuclear Xu-5-P activated PPase of liver; format: biochemical; conditions: for Nuclear PPase activity, +Xu5P / Nuclear PPase activity, None: Mono Q purified, phosphorylated peptide as substrate; for Nuclear PPase activity, None: absence of Xu-5-P; for inhibition of nuclear PPase (in words): 500 nM cantharidic acid, 300 nM deltamethrin
# T1 construct: from tissue; host or cells: rat liver nuclear extract, DEAE-cellulose then Mono Q
# Description: Liver nuclear extracts were prepared as described in Example 1.
# (§1) Synthetic peptides corresponding to amino acids #187-201 ([…] “P1” peptide) (SEQ ID NO:64), #556-573 ([…], “P4” peptide) (SEQ ID NO:65), and #655-674 ([…]; “P3” peptide) (SEQ ID NO:66), of ChREBP were prepared by the Peptide Synthesis Service of University of Texas Southwestern Medical Center. These peptides were phosphorylated by 10 U of PKA for 6 h at 30° C. P4 peptide corresponding to 556-573 ([…]) (SEQ ID NO:65), was phosphorylated by 10 U of AMPK for 5 h at 30° C. The reaction mixtures were passed through on a Dowex AG1X8 column (0.5 cm×5 cm) which had been equilibrated with 30% acetic acid to remove residual [^32P]-ATP. The labeled peptides in the pass through fraction were lyophilized.
# (§2) Protein phosphatase activity was determined by the method of Deana et al (Deana et al. (1990) Biochem, Biophys. Acta. 1051: 199-202). The reaction mixture contained in a final volume of 50 μ1,20 mM MOPS, pH 7.0, 1 mM DTT, 25 μg of BSA, and ^32P-labeled substrate for 15 min at 30° C. The reaction was terminated by the addition of 10% trichloroacetic acid. Phosphate released was converted to a phosphomolybdic complex followed by organic solvent (isobutyl alcohol:heptane, 1:1) extraction of the complex. The reaction mixture was mixed thoroughly and centrifuged. An aliquot of the top layer was then added to 5 ml scintillation fluid and counted. One unit of protein phosphatase is defined as that amount which catalyzes the release of 1.0 μmol of ^32P/min at 30° C.
# (§3) These peptides were assayed with Mono Q purified cytosolic and nuclear PPases in the presence and absence of 50 μM Xu-5-P.
# [2] = target: T2, cytosolic Xu-5-P activated PPase (Rattus norvegicus, UniProt P63331); assay: Protein phosphatase assay, cytosolic Xu-5-P activated PPase of liver; format: biochemical; conditions: for Cytosol. PPase activity, +Xu5P / Cytosol. PPase activity, None: Mono Q purified, phosphorylated peptide as substrate; for Cytosol. PPase activity, None: absence of Xu-5-P; for inhibition of cytosolic Xu-5-P activated PPase (in words): okadaic acid 10 nM (absence and presence of Xu-5-P), cantharidic acid 500 nM, deltamethrin 300 nM
# T2 construct: from tissue; host or cells: rat liver cytosolic extract, DEAE-cellulose then Mono Q
# Description: Liver was homogenized in a motor-driven Potter-Elvehjem homogenizer in 1 volume of extraction buffer containing 10 mM Hepes (pH 7.9), 10 mM KCl, 0.1 mM EDTA, 0.74 mM spermidine, 0.25 M sucrose, 50 mM imidazole, 1 mM dithiothreitol (DTT), 4 mM phenylmethanesulfonyl fluoride, and 1 mM benzamidine, and the extract was centrifuged at 10,000×g for 30 min.
# as §1, §2, §3
# L-PK gene [3] = assay: L-PK promoter luciferase reporter in ChREBP-transfected primary hepatocytes with kinase/phosphatase inhibitors or db-cAMP; conditions: for transcriptional activity of the L-PK gene in ChREBP-overexpressed hepatocytes: 5.5 and 27.5 mM glucose, 12 h, 10 μM H-89, 500 nM cantharidic acid, 5 μM KN-62, 30 μM PD98059, 50 μM Genistein
# Description: Primary hepatocytes were prepared from male Sprague-Dawley rats using the collagenase (Life Technologies, Inc.) perfusion method (Berry and Friend (1969) J Cell Bio […], 506-520) and plated in collagen-coated six-well tissue culture plates (Primaria Falcon, Franklin Lakes, N.J.) at a density of 1×10^6 cells/well in glucose-free Dulbecco's modified Eagle's medium (Life Technologies, Inc.) supplemented with 100 nM dexamethasone, 10 nM insulin, 100 units/ml penicillin, 100 μg/ml streptomycin and 10% dialyzed fetal bovine serum (Life Technologies, Inc.). Following attachment, synthetic liposomes were used to transfect hepatocytes with 0.5 μg of the luciferase reporter plasmid and 0.1 μg of the internal control plasmid pRL-TK. After 14 h the media was replaced by Dulbecco's modified Eagle medium supplemented with 100 nM dexamethasone, 10 nM insulin, 10% Fetal Bovine Serum and either 10 mM lactate, 5.5 mM glucose or 27.5 mM glucose. The cells were incubated for an additional 12 h prior to determination of luciferase activity using the Dual-Luciferase Reporter Assay System (Promega).
# Protein Kinase and Protein Phosphatase Inhibitors—Prior to exchange to 5.5 or 27.5 mM glucose medium, transfected primary culture hepatocytes were treated for 1 h with 10 μM H-89, 500 nM cantharidic acid (Calbiochem), 5 μM KN-62 (Calbiochem), 30 μM PD98059 (Calbiochem), 50 μM Genistein, or dimethylsulfoxide vehicle.
# Rat primary cultured hepatocytes were transfected a plasmid comprising a gene encoding the wild type (WT)-ChREBP. H-89, cantharidic acid, or dimethylsulfoxide vehicle was added, and the cells were incubated in 5.5 mM (□) or 27.5 mM (▪) glucose for 12 h.
# Rat primary cultured hepatocytes were transfected with wild type (WT)-ChREBP, S626A, S626D, T666A, or T666D. After transfection, the cells were incubated in 5.5 mM (□) or 27.5 mM (▪) glucose for 12 h. […] Rat primary cultured hepatocytes were transfected with wild type (WT)-ChREBP, S196A+S626A, or S196A+T666A. After transfection, cells were incubated under 5.5 mM (□) or 27.5 mM (▪) glucose, and cAMP was added both low and high glucose.
# GFP-fused ChREBP = assay: Subcellular localization of GFP-fused ChREBP in primary hepatocytes (confocal microscopy); format: cell-based, rat; conditions: 12 h
# Description: Determination of Subcellular Localization of ChREBP—Subcellular localization of GFP-fused WT-ChREBP or its mutants was determined using a confocal laser scanning microscope (Bio Rad, Hercules, Calif.). In order to quantitate nuclear localization of ChREBP, for each condition, 100 transfected hepatocytes from 5 independent experiments were scored in a blinded fashion as to whether the GFP-fused ChREBP was predominantly nuclear or cytoplasmic. The identity of the nucleus was verified by comparative phase-contrast microscopy. B. Results
# Rat primary cultured hepatocytes were transfected with a plasmid comprising a gene encoding the GFP-fused wild type-ChREBP or NLS domain deletion mutants. […] The values are expressed as mean±SE. *P<0.05 compared to that of wild type-ChREBP.
# [4] = target: ChREBP (Carbohydrate Response Element Binding Protein) from rat liver (rat) (UniProt Q8VIP2); assay: cell-based or functional assay
# L-PK gene [5] = assay: Glucose-induced L-PK transcription (luciferase) in ChREBP overexpressed hepatocytes with fatty acids or AICAR; format: cell-based, rat; conditions: 27.5 mM glucose
# Description: After a six h attachment period, hepatocytes were transfected using synthetic liposome (Lipofectamine 2000; Life Technologies) in Opti-MEM I reduced serum medium as described (Yamashita et al. Proc. Natl. Acad. Sci. USA 98, 9116-9121) and incubated for 12 h. As a control, hepatocytes were exposed to synthetic liposome in the same manner as each experimental group. […] The source of albumin for all studies was essentially fatty acid-free bovine serum albumin. Transfected cells were cultured for 12 h in culture medium containing 27.5 mM glucose plus 150 μM albumin-bound specific fatty acids or AICAR, washed twice with 2 ml Ca2+- and Mg2+-free phosphate-buffered saline, and lysed with Passive lysis buffer (Promega). Firefly luciferase and renilla (sea pansy) luciferase activities were measured sequentially using a Dual-Luciferase Reporter assay system (Promega) and a model TD-20E Luminometer (Turner Design, Sunnyvale, Calif.). After measuring the firefly luciferase signal and the renilla luciferase signal, the index of relative luciferase activity, indicating L-PK transcription activity, was calculated according to manufacturer's instructions (Promega).
# [6] = test system: T3, P4 peptide of ChREBP (amino acids #556-573), phosphorylated by AMPK
# T3 sequence: STVPSTLLRPPESPDAVP
# [7] = test system: T4, P3 peptide of ChREBP (amino acids #655-674), phosphorylated by PKA
# T4 sequence: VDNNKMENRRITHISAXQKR
# [8] = test system: T5, P1 peptide of ChREBP (amino acids #187-201), phosphorylated by PKA
# T5 sequence: YYKKRLRKSSREGDF
# cultured hepatocytes = assay: AMP, ADP, ATP assays in cultured hepatocytes; format: cell-based, rat; conditions: hepatocytes 12 h with 150 µM fatty acid, mean±S.E., n=4
# Description: Hepatocytes were scraped and collected directly into 0.5 ml of ice-cold 6% (v/v) HClO4. The concentrations of ADP and ATP were determined enzymatically in the acid-extract with methods described (Kawaguchi, T., Veech, R. L., and Uyeda, K. (2001) J. Biol. Chem. 276, 28554-28561), and the cytosolic AMP was calculated by the method of Veech et al. (Veech, R. L., Lawson, J. W., Cornell, N. W., and Krebs, H. A. (1979) J. Biol. Chem. 254, 6538-6547).
# Values are expressed as mean±S.E. (n=4).
# [9] = Mono Q purified enzyme, 50 μM Xu-5-P
# T2 sequence (P63331 whole entry): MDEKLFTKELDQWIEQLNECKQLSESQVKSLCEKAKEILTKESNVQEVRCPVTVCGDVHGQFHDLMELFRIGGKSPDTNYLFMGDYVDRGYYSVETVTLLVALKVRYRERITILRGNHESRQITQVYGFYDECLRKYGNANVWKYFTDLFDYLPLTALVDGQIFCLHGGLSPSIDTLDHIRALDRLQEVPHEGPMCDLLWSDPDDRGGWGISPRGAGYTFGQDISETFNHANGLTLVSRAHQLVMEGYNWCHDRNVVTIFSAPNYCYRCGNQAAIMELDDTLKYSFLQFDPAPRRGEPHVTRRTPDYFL
# T2 sequence (P56932 whole entry partner): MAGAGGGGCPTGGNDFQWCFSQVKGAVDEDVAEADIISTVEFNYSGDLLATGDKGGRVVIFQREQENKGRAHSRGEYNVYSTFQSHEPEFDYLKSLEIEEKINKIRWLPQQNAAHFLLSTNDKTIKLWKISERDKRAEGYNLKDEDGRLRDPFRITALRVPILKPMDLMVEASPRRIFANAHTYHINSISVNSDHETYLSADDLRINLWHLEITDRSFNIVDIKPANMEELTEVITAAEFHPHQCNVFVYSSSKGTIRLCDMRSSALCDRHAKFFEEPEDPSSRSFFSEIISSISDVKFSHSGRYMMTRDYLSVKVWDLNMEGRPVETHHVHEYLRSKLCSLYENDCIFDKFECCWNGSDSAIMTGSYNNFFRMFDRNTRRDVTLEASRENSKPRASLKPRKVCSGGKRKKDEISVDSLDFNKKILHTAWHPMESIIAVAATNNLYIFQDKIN
# T2 sequence (Q5XI34 1-589 partner): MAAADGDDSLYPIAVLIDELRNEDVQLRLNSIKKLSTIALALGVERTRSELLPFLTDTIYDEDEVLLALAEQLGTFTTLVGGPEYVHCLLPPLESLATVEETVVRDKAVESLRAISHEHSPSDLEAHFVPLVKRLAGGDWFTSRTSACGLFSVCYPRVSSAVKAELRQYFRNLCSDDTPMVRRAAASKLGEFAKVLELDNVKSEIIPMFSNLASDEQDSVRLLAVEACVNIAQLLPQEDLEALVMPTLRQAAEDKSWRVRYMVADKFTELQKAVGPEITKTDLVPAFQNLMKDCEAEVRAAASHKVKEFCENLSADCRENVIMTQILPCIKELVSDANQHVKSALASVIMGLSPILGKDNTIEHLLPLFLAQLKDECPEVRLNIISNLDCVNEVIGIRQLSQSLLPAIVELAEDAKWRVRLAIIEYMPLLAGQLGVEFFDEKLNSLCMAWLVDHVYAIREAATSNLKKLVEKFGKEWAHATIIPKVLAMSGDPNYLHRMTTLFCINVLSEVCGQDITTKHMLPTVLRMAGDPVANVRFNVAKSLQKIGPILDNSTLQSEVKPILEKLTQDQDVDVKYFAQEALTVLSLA
# T1 sequence (P63331 whole entry): as the sequence (P63331 whole entry) above
# T1 sequence (P56932 whole entry partner): as the sequence (P56932 whole entry partner) above
# T1 sequence (Q5XI34 1-589 partner): as the sequence (Q5XI34 1-589 partner) above
# Sequence of ChREBP (Carbohydrate Response Element Binding Protein) from rat liver (rat) (Q8VIP2 whole entry): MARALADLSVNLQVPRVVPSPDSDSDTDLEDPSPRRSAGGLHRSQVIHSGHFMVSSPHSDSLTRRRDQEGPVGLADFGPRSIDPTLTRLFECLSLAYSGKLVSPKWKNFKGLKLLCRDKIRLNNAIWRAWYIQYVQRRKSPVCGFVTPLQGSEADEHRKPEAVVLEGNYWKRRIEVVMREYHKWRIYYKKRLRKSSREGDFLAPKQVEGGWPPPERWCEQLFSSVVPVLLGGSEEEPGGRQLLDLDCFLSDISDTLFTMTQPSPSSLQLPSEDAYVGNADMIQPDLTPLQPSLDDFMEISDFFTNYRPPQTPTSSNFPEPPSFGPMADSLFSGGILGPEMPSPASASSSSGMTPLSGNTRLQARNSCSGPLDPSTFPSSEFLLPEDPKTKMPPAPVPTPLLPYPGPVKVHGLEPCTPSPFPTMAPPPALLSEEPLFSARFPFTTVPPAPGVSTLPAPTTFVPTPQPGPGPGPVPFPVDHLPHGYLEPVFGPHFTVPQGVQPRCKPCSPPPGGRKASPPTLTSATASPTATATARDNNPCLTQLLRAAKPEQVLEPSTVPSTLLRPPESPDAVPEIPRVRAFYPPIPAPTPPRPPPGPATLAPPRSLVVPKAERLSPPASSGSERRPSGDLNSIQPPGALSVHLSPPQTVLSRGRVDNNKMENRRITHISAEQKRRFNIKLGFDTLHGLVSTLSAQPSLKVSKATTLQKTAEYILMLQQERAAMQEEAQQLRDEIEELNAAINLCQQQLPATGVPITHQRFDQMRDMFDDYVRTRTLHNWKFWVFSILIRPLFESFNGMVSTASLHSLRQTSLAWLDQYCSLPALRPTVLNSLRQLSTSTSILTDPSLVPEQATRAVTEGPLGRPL
compound,measurement,setting,value
O=C(CO)[C@@H](O)[C@H](O)COP(=O)(O)O [Xu-5-P],extent of activation of nuclear PPase by Xu-5-P,[1]; [9],1.8 fold
same,"activation of nuclear PPase, P3 peptide substrate","[1]; crude nuclear extract, added Xu-5-P",activated
same,"activation of nuclear PPase, P4 peptide substrate",[1]; nuclear extract,activated
same,extent of activation of cytosolic PPase by Xu-5-P,[2]; [9],1.8 fold
same,activation of P1 dephosphorylation by PPase of desalted cytosolic liver extract,[2]; only metabolite among glycolysis and pentose shunt intermediates examined,able to activate
"P1 peptide: synthetic peptide, amino acids #187-201 of ChREBP, YYKKRLRKSSREGDF, phosphorylated by PKA (also: phosphorylated by PKA, site not given here)","Nuclear PPase activity, +Xu5P",[1]; 50 μM Xu-5-P,0.93 units/mg
same,"Nuclear PPase activity, None",[1],0.55 units/mg
same,"Cytosol. PPase activity, +Xu5P",[2]; 50 μM Xu-5-P,11.2 units/mg
same,"Cytosol. PPase activity, None",[2],6.2 units/mg
CC1(C(=O)O)C2CCC(O2)C1(C)C(=O)O (centres unmarked) [cantharidic acid],transcriptional activity of the L-PK gene in ChREBP-overexpressed hepatocytes,L-PK gene [3],inhibited
same,inhibition of nuclear PPase (in words),[1],completely inhibited
same,inhibition of cytosolic Xu-5-P activated PPase (in words),[2],completely
same,nuclear staining rate of GFP-fused ChREBP,"GFP-fused ChREBP; 500 nM cantharidic acid, 5.5 or 27.5 mM glucose",significantly decreased
O=S(=O)(NCCNC/C=C/c1ccc(Br)cc1)c1cccc2cnccc12 [H-89],effect on endogenous ChREBP (L-PK transcriptional activity),"L-PK gene [3]; 10 μM H-89, hepatocytes without ChREBP overexpression",stimulated
same,transcriptional activity of the L-PK gene in ChREBP-overexpressed hepatocytes,L-PK gene [3],increased
same,nuclear staining rate of GFP-fused ChREBP,"GFP-fused ChREBP; 5.5 mM glucose, 10 μM H-89",increased
catalytic subunit of cAMP-dependent protein kinase (PKA) (enzyme),reduction in DNA-binding activity of ChREBP after phosphorylation (gel shift),[4],90%
COc1cccc(-c2cc(=O)c3ccccc3o2)c1N [PD98059],transcriptional activity of the L-PK gene in ChREBP-overexpressed hepatocytes,L-PK gene [3],did not affect
CC1(C)[C@H](C(=O)O[C@H](C#N)c2cccc(Oc3ccccc3)c2)[C@@H]1C=C(Br)Br [deltamethrin],inhibition of nuclear PPase (in words),[1],not affected
same,inhibition of cytosolic Xu-5-P activated PPase (in words),[2],did not affect
O=c1c(-c2ccc(O)cc2)coc2cc(O)cc(O)c12 [Genistein],transcriptional activity of the L-PK gene in ChREBP-overexpressed hepatocytes,L-PK gene [3],did not affect
"NC(=O)c1ncn([C@@H]2O[C@H](COP(=O)(O)O)[C@@H](O)[C@H]2O)c1N [AICAR, 5-amino-4-imidazolecarboxamide ribotide]",inhibition of glucose activation of L-PK gene transcription,L-PK gene [5]; AICAR 50 μM,approximately 80%
same,inhibition of glucose activation of L-PK gene transcription,L-PK gene [5]; AICAR 200 μM,over 90%
"nuclear Xu-5-P activated PPase (Mono Q purified, rat liver)","PPase activity (units/mg), +Xu5P (50 µM)",[6],0.67 units/mg
same,"PPase activity (units/mg), no Xu-5-P",[6],0.39 units/mg
same,"PPase activity (units/mg), +Xu5P (50 µM)",[7],0.94 units/mg
same,"PPase activity (units/mg), no Xu-5-P",[7],0.52 units/mg
same,"PPase activity (units/mg), +Xu5P (50 µM)",[8],0.93 units/mg
same,"PPase activity (units/mg), no Xu-5-P",[8],0.55 units/mg
"P3 peptide: synthetic peptide, amino acids #655-674 of ChREBP, VDNNKMENRRITHISAEQKR, phosphorylated by PKA (also: phosphorylated by PKA, site not given here)","Nuclear PPase activity, +Xu5P",[1]; 50 μM Xu-5-P,0.94 units/mg
same,"Nuclear PPase activity, None",[1],0.52 units/mg
same,"Cytosol. PPase activity, +Xu5P",[2]; 50 μM Xu-5-P,11.0 units/mg
same,"Cytosol. PPase activity, None",[2],6.0 units/mg
CC(=O)O [acetate],AMP,cultured hepatocytes,910 ± 87 nmol/g cells
"cytosolic Xu-5-P activated PPase (Mono Q purified, rat liver)","PPase activity (units/mg), +Xu5P (50 µM)",[6],8.8 units/mg
same,"PPase activity (units/mg), no Xu-5-P",[6],5.2 units/mg
same,"PPase activity (units/mg), +Xu5P (50 µM)",[7],11 units/mg
same,"PPase activity (units/mg), no Xu-5-P",[7],6 units/mg
same,"PPase activity (units/mg), +Xu5P (50 µM)",[8],11.2 units/mg
same,"PPase activity (units/mg), no Xu-5-P",[8],6.2 units/mg
CN([C@@H](Cc1ccc(OS(=O)(=O)c2cccc3cnccc23)cc1)C(=O)N1CCN(c2ccccc2)CC1)S(=O)(=O)c1cccc2cnccc12 [KN-62],transcriptional activity of the L-PK gene in ChREBP-overexpressed hepatocytes,L-PK gene [3],did not affect

# From patent US20030124590A1, “Carbohydrate response element binding protein and uses thereof” (priority 2001, published 2003)
